Square brackets hold non-standard residues; d marks the D form. Ends that are not written are not given here. Hyp = O=C(O)[C@@H]1C[C@@H](O)CN1; Ahx = NCCCCCC(=O)O
How the values were obtained:
Conditions in all cases: both partners purified
[1] = target: T1, lysine methylated C259A/C540S TDR mutant, extracellular domain (residues 31–631) (Arabidopsis thaliana, UniProt Q9FII5 31-631, C259A | C540S, lysine residues methylated; digested with Endo H (deglycosylated)); assay: crystal structure; TDR and TDIF mixed at a molar ratio of 1:1.5, vapour diffusion at 20 °C, 4 M sodium nitrate, 0.1 M sodium acetate pH 4.8, 200 mM ammonium sulfate; 3.0 Å, molecular replacement
T1 construct: TDR/PXY, Arabidopsis thaliana, extracellular LRR domain, residues 31-631, with C259A/C540S; also called lysine methylated C259A/C540S mutant; methylated TDR protein; not shown: 10xHis (after an HRV3C protease site), C-terminal, cleaved
T1 sequence (looked up): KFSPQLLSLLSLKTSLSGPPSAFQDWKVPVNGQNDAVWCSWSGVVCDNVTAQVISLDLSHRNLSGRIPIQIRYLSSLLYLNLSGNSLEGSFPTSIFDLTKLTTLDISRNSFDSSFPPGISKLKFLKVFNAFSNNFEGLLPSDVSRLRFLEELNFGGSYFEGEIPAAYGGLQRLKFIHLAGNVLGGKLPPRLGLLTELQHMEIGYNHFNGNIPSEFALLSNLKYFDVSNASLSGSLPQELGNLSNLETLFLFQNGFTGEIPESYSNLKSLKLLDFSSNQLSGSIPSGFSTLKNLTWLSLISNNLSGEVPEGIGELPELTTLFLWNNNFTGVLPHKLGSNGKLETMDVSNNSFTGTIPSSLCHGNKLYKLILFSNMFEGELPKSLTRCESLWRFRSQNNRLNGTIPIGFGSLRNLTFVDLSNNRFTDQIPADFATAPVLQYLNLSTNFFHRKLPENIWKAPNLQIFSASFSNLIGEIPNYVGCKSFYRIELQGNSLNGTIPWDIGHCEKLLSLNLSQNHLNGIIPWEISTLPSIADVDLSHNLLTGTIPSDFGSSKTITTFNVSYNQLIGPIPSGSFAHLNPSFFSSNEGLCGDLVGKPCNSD

[2] = target: T2, TDR R421A mutant (in the C259A/C540S extracellular domain, residues 31–631) (Arabidopsis thaliana, UniProt Q9FII5 31-631, C259A | C540S | R421A); assay: pull-down; biotinylated TDIF (2 ug) held on Dynabeads M-280 Streptavidin; purified TDR protein added with 0.1 mg/ml BSA, 4 °C, 2 h; wash buffer 20 mM Tris-HCl pH 7.5, 150 mM NaCl; bound protein eluted in SDS sample buffer, SDS-PAGE
T2 construct: TDR/PXY, Arabidopsis thaliana, extracellular LRR domain, residues 31-631, C259A/C540S background with R421A; source: Sf9 insect cells (baculovirus), purified (Ni Sepharose excel)
T2 sequence (looked up): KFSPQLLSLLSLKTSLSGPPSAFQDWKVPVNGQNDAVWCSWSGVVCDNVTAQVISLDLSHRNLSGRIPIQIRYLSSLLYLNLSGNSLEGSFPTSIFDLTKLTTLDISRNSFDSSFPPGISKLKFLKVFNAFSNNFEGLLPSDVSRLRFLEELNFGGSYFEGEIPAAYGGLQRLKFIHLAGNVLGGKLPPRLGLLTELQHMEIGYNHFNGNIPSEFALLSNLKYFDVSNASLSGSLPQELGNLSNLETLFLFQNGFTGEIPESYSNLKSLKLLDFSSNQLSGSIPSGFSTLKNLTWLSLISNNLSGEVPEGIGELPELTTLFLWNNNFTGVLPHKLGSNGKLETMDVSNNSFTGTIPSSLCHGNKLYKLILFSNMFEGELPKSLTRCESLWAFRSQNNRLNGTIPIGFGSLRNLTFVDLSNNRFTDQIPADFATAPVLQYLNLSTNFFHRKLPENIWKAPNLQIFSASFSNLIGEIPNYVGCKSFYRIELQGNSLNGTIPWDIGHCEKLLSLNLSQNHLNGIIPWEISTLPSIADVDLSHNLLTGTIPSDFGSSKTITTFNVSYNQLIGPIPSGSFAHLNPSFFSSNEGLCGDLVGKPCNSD

[3] = target: T1, lysine methylated C259A/C540S TDR …; assay: as above
[4] = target: T3, TDR R423A mutant (in the C259A/C540S extracellular domain, residues 31–631) (Arabidopsis thaliana, UniProt Q9FII5 31-631, C259A | C540S | R423A); assay: as above
T3 construct: TDR/PXY, Arabidopsis thaliana, extracellular LRR domain, residues 31-631, C259A/C540S background with R423A; source: Sf9 insect cells (baculovirus), purified (Ni Sepharose excel)
T3 sequence (looked up): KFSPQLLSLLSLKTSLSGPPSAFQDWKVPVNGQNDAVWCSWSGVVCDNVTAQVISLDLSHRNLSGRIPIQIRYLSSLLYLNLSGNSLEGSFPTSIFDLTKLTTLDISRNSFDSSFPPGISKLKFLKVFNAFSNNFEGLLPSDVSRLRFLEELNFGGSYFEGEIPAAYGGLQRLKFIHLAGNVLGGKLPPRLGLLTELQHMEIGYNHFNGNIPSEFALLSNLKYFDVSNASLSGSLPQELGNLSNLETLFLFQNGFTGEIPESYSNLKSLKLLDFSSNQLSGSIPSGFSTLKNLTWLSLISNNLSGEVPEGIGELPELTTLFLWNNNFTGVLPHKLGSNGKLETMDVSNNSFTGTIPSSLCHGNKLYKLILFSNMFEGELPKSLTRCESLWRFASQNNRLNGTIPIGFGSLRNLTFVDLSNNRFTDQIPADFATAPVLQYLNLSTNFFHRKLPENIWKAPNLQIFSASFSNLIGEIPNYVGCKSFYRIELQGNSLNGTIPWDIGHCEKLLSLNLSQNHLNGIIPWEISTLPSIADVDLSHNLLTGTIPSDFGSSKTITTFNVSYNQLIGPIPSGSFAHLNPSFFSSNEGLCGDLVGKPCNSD

[5] = target: T4, C259A/C540S TDR mutant, extracellular domain (residues 31–631), as in the pull-down of Fig. 2e (Arabidopsis thaliana, UniProt Q9FII5 31-631, C259A | C540S); assay: as above
T4 construct: TDR/PXY, Arabidopsis thaliana, extracellular LRR domain, residues 31-631, with C259A/C540S; it may be the same preparation as m2; also called C259A/C540S mutant; TDR C259A/C540S mutant; source: Sf9 insect cells (baculovirus), purified
T4 sequence (looked up): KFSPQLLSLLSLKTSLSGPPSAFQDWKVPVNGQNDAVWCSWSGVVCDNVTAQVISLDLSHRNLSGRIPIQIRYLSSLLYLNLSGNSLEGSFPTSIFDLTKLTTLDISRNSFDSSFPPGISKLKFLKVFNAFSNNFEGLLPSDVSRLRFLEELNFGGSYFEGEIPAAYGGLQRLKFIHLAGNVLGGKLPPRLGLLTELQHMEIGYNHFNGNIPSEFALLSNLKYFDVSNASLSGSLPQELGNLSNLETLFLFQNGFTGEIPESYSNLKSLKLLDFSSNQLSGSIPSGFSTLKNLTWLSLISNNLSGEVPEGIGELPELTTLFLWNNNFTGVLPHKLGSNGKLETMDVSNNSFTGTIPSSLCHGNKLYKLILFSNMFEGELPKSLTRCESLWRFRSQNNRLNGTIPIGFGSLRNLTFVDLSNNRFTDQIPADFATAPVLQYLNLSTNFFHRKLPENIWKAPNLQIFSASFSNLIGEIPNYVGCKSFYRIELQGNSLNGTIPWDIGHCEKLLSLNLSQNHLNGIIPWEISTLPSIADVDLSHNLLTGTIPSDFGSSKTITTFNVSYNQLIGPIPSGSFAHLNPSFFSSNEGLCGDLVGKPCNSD

[6] = target: T5, TDR S162A mutant (in the C259A/C540S extracellular domain, residues 31–631) (Arabidopsis thaliana, UniProt Q9FII5 31-631, C259A | C540S | S162A); assay: as above
T5 construct: TDR/PXY, Arabidopsis thaliana, extracellular LRR domain, residues 31-631, C259A/C540S background with S162A; source: Sf9 insect cells (baculovirus), purified (Ni Sepharose excel)
T5 sequence (looked up): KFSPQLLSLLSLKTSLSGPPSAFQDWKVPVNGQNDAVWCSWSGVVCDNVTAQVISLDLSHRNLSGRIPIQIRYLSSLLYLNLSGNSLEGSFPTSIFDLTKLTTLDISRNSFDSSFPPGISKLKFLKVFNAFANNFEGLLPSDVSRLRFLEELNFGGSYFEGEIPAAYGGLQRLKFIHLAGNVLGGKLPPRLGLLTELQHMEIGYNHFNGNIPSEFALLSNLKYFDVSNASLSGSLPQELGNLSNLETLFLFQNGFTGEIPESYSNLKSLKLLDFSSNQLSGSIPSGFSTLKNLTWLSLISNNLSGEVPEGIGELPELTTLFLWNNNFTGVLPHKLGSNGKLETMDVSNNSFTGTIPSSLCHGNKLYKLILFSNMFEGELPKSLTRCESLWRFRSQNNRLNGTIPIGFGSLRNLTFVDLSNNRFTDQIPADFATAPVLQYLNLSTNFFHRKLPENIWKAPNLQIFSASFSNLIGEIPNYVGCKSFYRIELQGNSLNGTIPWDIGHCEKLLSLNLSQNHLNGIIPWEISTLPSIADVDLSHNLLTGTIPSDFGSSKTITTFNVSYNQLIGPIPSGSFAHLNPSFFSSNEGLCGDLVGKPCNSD

[7] = target: T6, extracellular domain (residues 31–631) of TDR from A. thaliana, wild type (Arabidopsis thaliana, UniProt Q9FII5 31-631); assay: as above
T6 construct: TDR/PXY (TDIF receptor/phloem intercalated with xylem), LRR receptor-like kinase, Arabidopsis thaliana, extracellular LRR domain, residues 31-631; The purification told in the methods cleaves the His tag with HRV3C protease; also called wild-type TDR; TDIF receptor; source: Sf9 insect cells (baculovirus), secreted into the culture supernatant, purified
T6 sequence (looked up): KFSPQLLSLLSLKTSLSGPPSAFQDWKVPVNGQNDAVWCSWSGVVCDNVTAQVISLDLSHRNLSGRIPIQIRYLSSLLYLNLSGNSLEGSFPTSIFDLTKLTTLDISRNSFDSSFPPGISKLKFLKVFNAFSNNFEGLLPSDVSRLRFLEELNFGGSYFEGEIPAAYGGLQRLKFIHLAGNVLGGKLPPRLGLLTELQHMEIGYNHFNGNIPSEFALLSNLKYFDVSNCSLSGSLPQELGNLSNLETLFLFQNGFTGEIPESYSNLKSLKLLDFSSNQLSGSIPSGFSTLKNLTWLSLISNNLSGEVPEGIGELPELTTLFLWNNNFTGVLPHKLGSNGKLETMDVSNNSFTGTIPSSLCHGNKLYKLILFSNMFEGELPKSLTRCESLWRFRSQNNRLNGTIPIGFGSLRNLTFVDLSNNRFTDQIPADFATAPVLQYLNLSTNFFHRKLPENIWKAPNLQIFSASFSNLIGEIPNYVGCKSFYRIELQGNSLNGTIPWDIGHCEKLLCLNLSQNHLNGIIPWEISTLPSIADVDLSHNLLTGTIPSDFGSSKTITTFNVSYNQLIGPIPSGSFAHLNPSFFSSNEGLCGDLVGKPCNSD

[8] = target: T7, TDR F161A mutant (in the C259A/C540S extracellular domain, residues 31–631) (Arabidopsis thaliana, UniProt Q9FII5 31-631, C259A | C540S | F161A); assay: as above
T7 construct: TDR/PXY, Arabidopsis thaliana, extracellular LRR domain, residues 31-631, C259A/C540S background with F161A; source: Sf9 insect cells (baculovirus), purified (Ni Sepharose excel)
T7 sequence (looked up): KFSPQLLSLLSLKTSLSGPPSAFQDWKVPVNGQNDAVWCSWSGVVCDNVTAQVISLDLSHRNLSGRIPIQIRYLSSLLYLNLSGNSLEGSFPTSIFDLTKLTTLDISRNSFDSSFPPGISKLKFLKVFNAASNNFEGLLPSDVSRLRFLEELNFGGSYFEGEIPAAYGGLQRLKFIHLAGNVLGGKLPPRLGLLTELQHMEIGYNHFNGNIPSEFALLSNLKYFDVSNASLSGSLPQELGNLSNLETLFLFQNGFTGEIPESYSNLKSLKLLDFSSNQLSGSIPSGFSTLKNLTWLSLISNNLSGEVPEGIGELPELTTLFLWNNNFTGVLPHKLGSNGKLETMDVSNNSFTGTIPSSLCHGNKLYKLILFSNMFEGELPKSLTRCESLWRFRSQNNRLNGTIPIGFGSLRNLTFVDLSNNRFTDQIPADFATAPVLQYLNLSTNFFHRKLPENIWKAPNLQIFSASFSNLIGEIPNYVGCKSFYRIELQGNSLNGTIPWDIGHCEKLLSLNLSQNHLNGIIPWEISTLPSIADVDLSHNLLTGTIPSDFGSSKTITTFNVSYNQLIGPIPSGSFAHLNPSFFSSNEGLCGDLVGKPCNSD

Measured: binding result

B1: Tracheary element differentiation factor (TDIF) peptide, HEV(Hyp)SG(Hyp)NPISN (peptide)
peptide: HEV[Hyp]SG[Hyp]NPISN
notes: TDIF, 12-residue CLE family peptide with two hydroxyprolines (written P at 4 and 7), encoded by the CLE41 and CLE44 genes in Arabidopsis; the processed peptide from the C-terminus of the precursor; The same peptide is also encoded by CLE44; also called synthesized TDIF peptide; source: synthetic peptide (Eurofins Genomics)
binds: [1]

B2: biotinylated TDIF peptide, HEV(Hyp)SG(Hyp)NPISN-GSGS-(Ahx)-Biotin (peptide)
peptide: HEV[Hyp]SG[Hyp]NPISNGSGS-{Ahx-biotin}
notes: TDIF, 12-residue CLE family peptide with two hydroxyprolines (written P at 4 and 7), encoded by the CLE41 and CLE44 genes in Arabidopsis; linker before (Ahx)-Biotin; also called biotinylated TDIF peptides; source: synthetic peptide (Eurofins Genomics); not shown: Biotin, C-terminal, kept
not listed: [1]
binds: all other assays above

From paper PMC4979064, “Crystal structure of the plant receptor-like kinase TDR in complex with the TDIF peptide” (Nature Communications, 2016)
